Measurements from patent US7838288B2, “Modulators of odorant receptors” (Duke University, priority 2004, dated 2010).

Test system: olfr62
Assay: CRE-luciferase reporter gene assay, olfr62
Format: cell-based, mouse
Conditions: 293T cells expressing RTP1 variant
In short: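 Receptor-transfected 293T cells carrying CRE-luciferase plus SV40-Renilla control, switched to CD293 medium 12 h post-transfection, then exposed to odorants for 4 h at 37 °C. Signal is dual-luciferase normalized activity, [Luc(N) − Luc(0)]/Renilla.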

B1: RTP1-A1: RTP1 variant from deleting portions of RTP1-A; murine SEQ ID NO: 46, human SEQ ID NO: 47 (protein, listed as Mus musculus)
chain: MCKSVTTGEWKKVFYEKMEEVKPADSWDFIIDPNLKHNVLAPGWKQYLELHASGRFHCSWCWHTWQSPHVVILFHMYLDKAQRAGSVRMRVFKQLCYECGTARLDESSMLEENIESLVDNLITSLREQCYGERGGHYRIHVASRQDNRRHRGEFCEACQEGIVHWKPSEKLLEEEATTYTFSRAPSPTKPQAETGSGCNFCSIPWCLFWATVLMLIIYLQFSFRTSV
OLFR62 activity as indicated by luciferase expression: Increased enhancement
